In one assay the target is T1, PR (Homo sapiens, UniProt P06401).
T1 construct: expressed in transfected cells; host or cells: DU145, PC-3
T1 sequence (P06401 1-933): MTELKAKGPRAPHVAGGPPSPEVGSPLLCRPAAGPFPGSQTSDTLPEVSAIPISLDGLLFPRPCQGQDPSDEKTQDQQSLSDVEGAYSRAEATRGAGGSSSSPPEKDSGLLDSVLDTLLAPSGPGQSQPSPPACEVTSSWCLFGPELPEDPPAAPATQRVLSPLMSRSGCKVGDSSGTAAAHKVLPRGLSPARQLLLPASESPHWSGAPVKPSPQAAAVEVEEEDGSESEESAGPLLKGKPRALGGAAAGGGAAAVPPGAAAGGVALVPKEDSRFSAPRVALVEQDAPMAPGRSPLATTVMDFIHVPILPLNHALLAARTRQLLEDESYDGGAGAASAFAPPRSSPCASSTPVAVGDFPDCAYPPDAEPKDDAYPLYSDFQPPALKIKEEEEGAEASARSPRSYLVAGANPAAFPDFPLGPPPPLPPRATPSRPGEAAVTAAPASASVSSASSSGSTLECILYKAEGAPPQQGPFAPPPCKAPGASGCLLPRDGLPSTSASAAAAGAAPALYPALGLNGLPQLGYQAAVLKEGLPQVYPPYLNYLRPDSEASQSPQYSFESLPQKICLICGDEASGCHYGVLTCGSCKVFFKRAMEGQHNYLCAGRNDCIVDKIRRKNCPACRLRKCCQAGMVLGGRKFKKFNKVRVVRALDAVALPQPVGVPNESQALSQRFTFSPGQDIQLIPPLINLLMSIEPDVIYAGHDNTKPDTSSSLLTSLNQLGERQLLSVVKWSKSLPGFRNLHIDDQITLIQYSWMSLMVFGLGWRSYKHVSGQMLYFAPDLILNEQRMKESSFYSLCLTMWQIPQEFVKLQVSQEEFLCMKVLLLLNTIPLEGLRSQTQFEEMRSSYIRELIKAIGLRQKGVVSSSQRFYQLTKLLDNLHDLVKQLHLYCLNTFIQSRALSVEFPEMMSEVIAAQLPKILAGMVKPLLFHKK
The following applies: previous studies; cited from earlier work.

A further assay has as its system AR. As to the kind of experiment: AR transactivation reporter gene assay (CAT/Luc) in prostate cancer cell lines (Example 2). Format: cell-based, human. On the procedure: 394. The human prostate cancer cell lines, LNCaP, PC-3, and DU145, were maintained in Dulbecco's minimum essential medium (DMEM) containing 5% fetal calf serum (FCS). Transfections using the calcium phosphate precipitation method and chloramphenicol acetyltransferase (CAT) and luciferase (Luc) assays were performed as previously described (Miyamoto et al. (1998) Proc. Natl. Acad. Sci. U.S.A. 95, 7379-7384; Yeh et al. (1999) Endocrine 11, 195-202; Miyamoto et al. (1998) Proc. Natl. Acad. Sci. U.S.A. 95, 11083-11088). Briefly, 1-4×10^5 cells were plated on 35-mm or 60-mm dishes 24 h before adding the precipitation mix containing a CAT or Luc reporter gene and a β-galactosidase expression plasmid (pCMV-β-gal) as an internal control for normalization of transfection efficiency. The medium was changed to phenol-red-free DMEM with 5% charcoal-stripped FCS 1 h before transfection. In each experiment, the total amount of transfected DNA per dish was maintained as a constant by addition of empty expression vector (pSG5 or pVP16, as appropriate). […] The cells were then harvested and whole cell extracts were used for CAT or Luc assay. The CAT activity was quantitated with a PhosphorImager (Molecular Dynamics). The Luc assay was determined using a Dual-Luciferase Reporter Assay System (Promega) and luminometer.

B1: ARA54: 54 kDa protein that interacts with AR in an androgen-dependent manner; AR coactivator (protein)
Chain of AR (P10275 whole entry): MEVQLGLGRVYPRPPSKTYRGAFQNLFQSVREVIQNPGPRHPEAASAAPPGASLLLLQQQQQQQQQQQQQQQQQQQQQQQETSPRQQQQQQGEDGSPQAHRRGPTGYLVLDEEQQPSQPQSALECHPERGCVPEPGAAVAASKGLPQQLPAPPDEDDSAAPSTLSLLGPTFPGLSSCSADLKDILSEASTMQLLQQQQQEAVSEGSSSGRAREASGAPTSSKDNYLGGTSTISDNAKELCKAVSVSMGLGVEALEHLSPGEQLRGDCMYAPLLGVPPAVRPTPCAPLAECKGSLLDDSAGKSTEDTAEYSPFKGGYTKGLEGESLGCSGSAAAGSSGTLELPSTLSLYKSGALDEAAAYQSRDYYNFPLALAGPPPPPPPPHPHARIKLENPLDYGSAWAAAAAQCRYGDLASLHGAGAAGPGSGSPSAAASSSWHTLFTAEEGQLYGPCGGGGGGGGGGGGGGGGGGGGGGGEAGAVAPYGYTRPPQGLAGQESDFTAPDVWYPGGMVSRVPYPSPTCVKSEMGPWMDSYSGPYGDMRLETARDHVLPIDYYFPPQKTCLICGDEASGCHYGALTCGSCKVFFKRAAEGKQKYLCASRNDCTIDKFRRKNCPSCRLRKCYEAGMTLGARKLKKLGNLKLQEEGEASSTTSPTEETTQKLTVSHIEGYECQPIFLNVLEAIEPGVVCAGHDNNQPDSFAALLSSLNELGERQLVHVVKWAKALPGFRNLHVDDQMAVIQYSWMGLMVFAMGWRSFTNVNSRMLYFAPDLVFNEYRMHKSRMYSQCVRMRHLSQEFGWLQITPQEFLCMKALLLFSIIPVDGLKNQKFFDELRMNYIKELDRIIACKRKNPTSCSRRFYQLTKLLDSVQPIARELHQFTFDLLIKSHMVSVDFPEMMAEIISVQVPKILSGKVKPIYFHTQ
chain: MSSEDREAQEDELLALASIYDGDEFRKAESVQGGETRIYLDLPQNFKIFVSGNSNECLQNSGFEYTICFLPPLVLNFELPPDYPSSSPPSFTLSGKWLSPTQLSALCKHLDNLWEEHRGSVVLFAWMQFLKEETLAYLNIVSPFELKIGSQKKVQRRTAQASPNTELDFGGAAGSDVDQEEIVDERAVQDVESLSNLIQEILDFDQAQQIKCFNSKLFLCSICFCEKLGSECMYFLECRHVYCKACLKDYFEIQIRDGQVQCLNCPEPKCPSVATPGQVKELVEAELFARYDRLLLQSSLDLMADVVYCPRPCCQLPVMQEPGCTMGICSSCNFAFCTLCRLTYHGVSPCKVTAEKLMDLRNEYLQADEANKRLLDQRYGKRVIQKALEEMESKEWLEKNSKSCPCCGTPIEKLDGCNKMTCTGCMQYFCWICMGSLSRANPYKHFNDPGSPCFNRLFYAVDVDDDIWEDEVED
B1: the “enhancement of the transcription activity of PR” value in the assay with PR is “up to 4 fold”.

B2: C′-ARA54: C-terminal region (amino acids 361-474) of ARA54 (protein)
chain: RNEYLQADEANKRLLDQRYGKRVIQKALEEMESKEWLEKNSKSCPCCGTPIEKLDGCNKMTCTGCMQYFCWICMGSLSRANPYKHFNDPGSPCFNRLFYAVDVDDDIWEDEVED
modifications: Homo sapien
notes: C-terminal region (amino acids 361-474) of ARA54
For B2, the “effect on ARA55-, ARA70-, Rb-, or SRC-1-enhanced AR transactivation” value in the assay on AR (DU145 cells, 1 nM DHT) is “only marginal or slight suppressive effects”. Further, the “effect on DHT- or HF-mediated AR transcription activity” value with AR (LNCaP, PC-3, DU145 cells, 1 nM DHT or 1 μM HF) is on record as “suppresses DHT- or HF-mediated AR transcription activity”.
